The text below walks through data of IntAct's records for PubMed 20531387.

B1: Centrosomal P4.1-associated protein (Homo sapiens), Q9HC77 (parent)
chain: MFLMPTSSELNSGQNFLTQWMTNPSRAGVILNRGFPILEADKEKRAAVDISTSFPIKGTHFSDSFSFINEEDSLLEEQKLESNNPYKPQSDKSETHTAFPCIKKGPQVAACHSAPGHQEENKNDFIPDLASEFKEGAYKDPLFKKLEQLKEVQQKKQEQLKRQQLEQLQRLMEEQEKLLTMVSGQCTLPGLSLLPDDQSQKHRSPGNTTTGERATCCFPSYVYPDPTQEETYPSNILSHEQSNFCRTAHGDFVLTSKRASPNLFSEAQYQEAPVEKNNLKEENRNHPTGESILCWEKVTEQIQEANDKNLQKHDDSSEVANIEERPIKAAIGERKQTFEDYLEEQIQLEEQELKQKQLKEAEGPLPIKAKPKQPFLKRGEGLARFTNAKSKFQKGKESKLVTNQSTSEDQPLFKMDRQQLQRKTALKNKELCADNPILKKDSKARTKSGSVTLSQKPKMLKCSNRKSLSPSGLKIQTGKKCDGQFRDQIKFENKVTSNNKENVTECPKPCDTGCTGWNKTQGKDRLPLSTGPASRLAAKSPIRETMKESESSLDVSLQKKLETWEREKEKENLELDEFLFLEQAADEISFSSNSSFVLKILERDQQICKGHRMSSTPVKAVPQKTNPADPISHCNRSEDLDHTAREKESECEVAPKQLHSLSSADELREQPCKIRKAVQKSTSENQTEWNARDDEGVPNSDSSTDSEEQLDVTIKPSTEDRERGISSREDSPQVCDDKGPFKDTRTQEDKRRDVDLDLSDKDYSSDESIMESIKHKVSEPSRSSSLSLSKMDFDDERTWTDLEENLCNHDVVLGNESTYGTPQTCYPNNEIGILDKTIKRKIAPVKRGEDLSKSRRSRSPPTSELMMKFFPSLKPKPKSDSHLGNELKLNISQDQPPGDNARSQVLREKIIELETEIEKFKAENASLAKLRIERESALEKLRKEIADFEQQKAKELARIEEFKKEEMRKLQKERKVFEKYTTAARTFPDKKEREEIQTLKQQIADLREDLKRKETKWSSTHSRLRSQIQMLVRENTDLREEIKVMERFRLDAWKRAEAIESSLEVEKKDKLANTSVRFQNSQISSGTQVEKYKKNYLPMQGNPPRRSKSAPPRDLGNLDKGQAASPREPLEPLNFPDPEYKEEEEDQDIQGEISHPDGKVEKVYKNGCRVILFPNGTRKEVSADGKTITVTFFNGDVKQVMPDQRVIYYYAAAQTTHTTYPEGLEVLHFSSGQIEKHYPDGRKEITFPDQTVKNLFPDGQEESIFPDGTIVRVQRDGNKLIEFNNGQRELHTAQFKRREYPDGTVKTVYANGHQETKYRSGRIRVKDKEGNVLMDTEL
partner: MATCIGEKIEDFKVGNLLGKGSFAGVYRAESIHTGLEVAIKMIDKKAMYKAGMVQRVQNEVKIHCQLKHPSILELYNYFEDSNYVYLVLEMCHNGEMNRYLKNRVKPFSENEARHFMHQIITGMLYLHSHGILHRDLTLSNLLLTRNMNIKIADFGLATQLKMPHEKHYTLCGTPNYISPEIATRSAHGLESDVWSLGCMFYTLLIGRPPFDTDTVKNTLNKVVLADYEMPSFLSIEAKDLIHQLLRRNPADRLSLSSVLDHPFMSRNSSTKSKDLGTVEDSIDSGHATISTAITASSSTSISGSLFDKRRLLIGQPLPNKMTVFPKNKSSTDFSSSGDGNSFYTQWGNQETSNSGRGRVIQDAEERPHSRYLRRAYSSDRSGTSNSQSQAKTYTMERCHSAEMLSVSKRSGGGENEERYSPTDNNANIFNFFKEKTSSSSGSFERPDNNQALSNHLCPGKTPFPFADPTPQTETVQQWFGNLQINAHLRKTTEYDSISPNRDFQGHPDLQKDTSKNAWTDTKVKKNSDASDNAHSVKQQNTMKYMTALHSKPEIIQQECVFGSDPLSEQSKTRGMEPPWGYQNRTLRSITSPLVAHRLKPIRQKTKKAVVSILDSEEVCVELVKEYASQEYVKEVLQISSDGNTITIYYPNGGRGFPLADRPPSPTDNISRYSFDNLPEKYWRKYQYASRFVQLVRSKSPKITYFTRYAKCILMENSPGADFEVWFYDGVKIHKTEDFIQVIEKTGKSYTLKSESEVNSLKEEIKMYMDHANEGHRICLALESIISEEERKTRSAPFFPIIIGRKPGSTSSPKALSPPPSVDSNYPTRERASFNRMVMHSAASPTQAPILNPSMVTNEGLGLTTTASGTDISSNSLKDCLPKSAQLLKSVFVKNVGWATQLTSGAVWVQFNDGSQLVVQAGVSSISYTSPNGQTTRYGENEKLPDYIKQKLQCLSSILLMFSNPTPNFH
B2: Centrosomal P4.1-associated protein (Homo sapiens), Q9HC77 (parent)
chain: B1 chain

Variants of B1 are the subject of one assay. Conditions: with plk4_human PLK4, O00444.
In the case of S595A, the “effect of a mutation on the interaction” value is “disrupting interaction”.
In the case of S589A, the “effect of a mutation on the interaction” value was “disrupting interaction”.

Variants of B2 are the subject of a further assay. Conditions: with plk2_human PLK2, Q9NYY3.
Chain of plk2_human PLK2, Q9NYY3 (Q9NYY3 whole entry, looked up): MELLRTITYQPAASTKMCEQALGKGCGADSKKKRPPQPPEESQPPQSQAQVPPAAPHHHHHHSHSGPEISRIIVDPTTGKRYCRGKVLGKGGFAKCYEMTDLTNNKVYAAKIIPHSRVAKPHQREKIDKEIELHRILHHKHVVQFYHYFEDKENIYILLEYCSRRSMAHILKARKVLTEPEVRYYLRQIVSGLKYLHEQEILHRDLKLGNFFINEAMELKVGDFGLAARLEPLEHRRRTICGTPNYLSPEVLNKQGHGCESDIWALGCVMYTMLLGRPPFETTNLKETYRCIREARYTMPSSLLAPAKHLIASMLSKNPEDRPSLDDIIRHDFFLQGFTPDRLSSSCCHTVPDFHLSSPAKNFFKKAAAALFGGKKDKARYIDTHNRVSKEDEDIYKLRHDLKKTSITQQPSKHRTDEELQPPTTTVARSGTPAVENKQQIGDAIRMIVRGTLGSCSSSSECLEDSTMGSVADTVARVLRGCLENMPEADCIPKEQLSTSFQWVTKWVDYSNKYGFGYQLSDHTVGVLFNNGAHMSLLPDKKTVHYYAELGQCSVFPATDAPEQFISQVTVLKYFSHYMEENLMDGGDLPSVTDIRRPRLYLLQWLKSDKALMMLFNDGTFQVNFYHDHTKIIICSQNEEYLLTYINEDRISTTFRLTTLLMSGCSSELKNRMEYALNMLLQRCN
With S589A, the “effect of a mutation on the interaction” value was “decreasing interaction”.

A further assay covers variants of B2. Conditions: with plk2_human PLK2, Q9NYY3. The source holds these as a separate data set.
Take S589A: the “effect of a mutation on the interaction” value is reported as “disrupting interaction”.
Same read-out and setting: next, S595A: “disrupting interaction”.

Variants of B2 are the subject of another assay. Conditions: with plk2_human PLK2, Q9NYY3. The source holds these as a separate data set.
For the variant S595A, the “effect of a mutation on the interaction” value is “decreasing interaction”.
